The results in this text go back to a protein production outcome set (Wang et al. 2014).

The nature of this data set: label from the status in PepcDB records.
Regarding “MRTGRSPPTPSTRCAVALVCSWSLIRVVRLSMARRSRCRLGMPSGVPGRCRRFSMTLTSLSGSTWNTRLLTAPISVRSCCTQPSWVVSRGLLVCLPSITPVLSRYGSLRSRCAWCRWLRPLTTTSPGSQRCWVPAGFGSRRTCPRTGLARRSATPLRTRCLSSSSRAVRMPRLVPYPSGCVMALRSMASSWTRQCVSLQLGTVGTATTIRLPRRCAESLMTEDYRLEFAEELVGVPDPFRRFWTPYRMAYISGENKPRGNRPEDGCPFCRAPQRSDEDALIVHRGEHCYVIMNLYPYGPGHMLVCPYRHVAGYVDATQDEVVEMAELTQDAIRTLQEVSRPQGFNVGINQGASGGAGVAAHLHQHVIPRWTGDTNFLPIVAGVRAVPQLLGDGRQMLADAWVGHA”, the protein production entry is on record as “failed”.

For “MRTKILLLTFTLLSSFSVLSQGNDLEQGMYELNRGEFKAAIEQFRPLVNEGYAPAQYQMALVYLHGYSVRKDSMKALELFELSAAQNYPDAQFELALIYSDGKLVKQNLKKAFELTHKAANKDLPSAQFNLAVMYANGTGIKQDDFKASRWYQRAANQNYALAQFNLALLYSEGKGVEKSTELSYVWNTIASWNGYPNAEKSRLMDERDLSKLKIEKSIEKANDIYQKIRDQQEMKAKMAEKQNFY”, the protein production result is given as “failed”.

Turning to “MRTNKDRLVRISVVGEIAPAKMRSPYSVTTEGTVRVIPVLGGITYNVKVGDSAYGWAGDHVEPGVSVMARRKEEEIPLMTLSCIGNEVIVMSGDAKGSRGFVTGKHGGVNHVLVHFEEEVLGKLMVGDKILIKAWGQGLKLLDHPDVKVMNIDPDLFEKLGIQEKNGKIHVPVVAKIPAHMMGSGIGASSSASTDYDIMASNPEDLGVADLKLGDIVAIQDHDNSYGVGKYRKGAVSIGVVVHSACVSAGHGPGVVVIMTGDESKILPEEVERANISDYLVR”, the protein production result is listed as “not failed”. On to “MRTPRFLRAVHANRTTARDVSSLRLPLQPRRDRARPGAMRTGLQGSVGIQCQLQRQHCQRQVASHAHYCADRGAVHCDGIACLDRAIGFQQLQGALGLAQEMRARHDLLTRVAAFFDAVGLQTVECQLLWRPLFALALDQASEPQLQIRAPPLRIYARRFDRRCQCFFGVQQQGARQRSAAQIQHDTLRSEIGLRGARAFRCCEAAKGKQRGSADFQLAAEDETAELGGDLGRVAVRQQHQQVCIVLTQKCEDGNHAPLRRQPRIPLPLPNRQRLYVIGKLGMRERHCIRADQSDVLDILQGAKTLRNKIQVVSHGRGGLKSPSCESTMIGHPTPTPAQDSETQPSSQEHIPEKKPLPKEIGGRDGPEPTRYGDWEKNGRCIDF”, for which the protein production entry is given as “failed”.

For “MRTTADRIRHTVGFELIGLLIFAPLASLVFGYALHQMGLVGAVASLIAAVWNYVYNILFDRGMLRFTGQLRKTPAIRVLHAILFEGGLLLVFLPSVAWYLDMTLLDAFIMDIAVAGFYMVYALVYNWVYDAVFPIPGLKAKEDSQPADCPSAN”, the protein production entry is “failed”. As for “MRTVDVFHPQAASNSAAVHASPQTTVAFSPDGTHYASAGYDGRVVLWDRSGTSPRWVGRHSRLVNGVRFSPSGRLLASGSADKTCRIWEVATGRQVQLLARQPDDLNALAWLDENRLVTVSQDGTGRIWDIRTGVLQEGVIFHADHCMSVDAAPTGVLASCGEDATIRLWDTDGSLLRDLPQAGHAEMCRWSPDGTLLAASCDDGFVHIVRTDGELVTKVGPYTAAVKSVAWSQDGSRIVIGAYDSTIALWDIADCRPLVRWYGAHLWPRAVDWSADGRTVVAGTFSARPAVIDVPEIPADALPDEVREITLEASVPTHGVNHVSAAGEVLAAGGDNGTIRVWSHRGATATEVPVGNGSLVNTVAVSAELPGLVAYGSFSGRVGVADAVTGRDVAAVQREHPVNRAAWSPDGRRLAVADYEGGLDLYAWTGRELVPGVHYAGHDGAIKDVSWVDADRLVTYSTDRRAHLITTEGTLIRSFGGHGELINGGSVTTVAGRALLATVSRDRTSRIYDLETGELLQVLVGHDESAKCAAWHPGGEPLLVTGSYDFTGRLWVLDPKTLAPLHQHVLEGHGSAVSAVCWLGDDAVTASWDSKVFTWTPDADPARPPAAAEPATDWRVREGSR”, the protein production entry is “failed”. Consider “MRTVVDYGAAIAFGVAYFVTKDFQKATWVLVAASAAALAIGYAVERRLAMLPLFFGGMALVFGTLGLIFGSDVFVKIKVTVINLALASFLVGGVLLKRQPLKVIMGEALHLPDAAWRTLTLRYGAYFAFVAIINEVVRNTQDTDTWVKFRLALLPVALVFVATQLPFMMKHMAKGDDAKAVEPPDAGF”, for which the protein production result is on record as “failed”. For the sequence “MRVAILGCGYVGCALARRLLAAGHDVVGVCRSPDSLDAVRETGATAVRADVTDAASLAAVPDADAVVFAASSGGRGADAAREVYVDGLRTVVEQFGGRDDPPEQLVYTSSTGVYGDHDGDWVDEETPLDPTTEKTAALVDAERVALTDASEHGLDPTVVRFAGLYGPDRYRLTRYLDGPVTEGYLNMIHRDDAAGVVAFALTDADADVLLAVDDDPVSKWAFADWLADEAGVPQPAKQTVAERIAAGDLSTPAERRLRTSKRCSNARLTELGYSFAHPTFRSGYQAAIRAHERGEYK”, the protein production entry is given as “failed”. Take “MRVAVITDSHGNAYALEATLREVHAAAPDLIVNLGDQIEGCADPARAAALQADLGALEVRGNNEEKLWPDGRRTPLAQEVGAWLAAQVSPADRERLAALPLTARVEGLFACHGTPESAWDSLLWVWDAAGGFYRSRDPRELRRMVEPLGAEVVVCGHTHRAGATRVGDTLVVNCGAISDQVDGDPRARWTLLERRGGGWNVEFHNVAYDIAGAVAWARAHSPFGDFEAHLLESGEMTGRGTGGI”: the protein production result is “failed”. As to “MRVDIWSDVVCPFCYIGKKRLEHVAAEAGIELDVHWHSFELDPDAPTSHDTSNTERLAKKYGRTFEEMQEMQQNIASMAAQEGIDFQWQKANSGNSFNAHRIIHLAQSKGLGNEAEEAFFHAYMTEGLAIGEREVVEEIASRIGLDHAEVEFVLDSNELSDFVRHDEKIAHEQLNISGVPFFVFDQKLALSGAQPKEVFLQVLQKALTQRENDAVAEASSDAVCSDDSCDIPQKS”, the protein production entry is “failed”.

Take “MRVGALDVGEARIGLAVGEEGVPLASGRGYLVRKTLEEDVEALLDFVRREGLGKLVVGLPLRTDLKESAQAGKVLPLVEALRARGVEVELWDERFTTKLAQERLKHAPKRLRRDKGKLDELAAVVLLEDYLARGI”: the protein production result was “not failed”.

For “MRVLITGATGGLGGAFARALKGHDLLLSGRRAGALAELAREVGARALPADLADELEAKALLEEAGPLDLLVHAVGKAGRASVREAGRDLVEEMLAAHLLTAAFVLKHARFQKGARAVFFGAYPRYVQVPGFAAYAAAKGALEAYLEAARKELLREGVHLVLVRLPAVATGLWAPLGGPPKGALSPEEAARKVLEGLFREPVPALLEV”, the protein production result is listed as “not failed”.

“MRVLVIGATGHVGTYLVPRLVEAGHDVVTISRGAARPYTADRAWASVDQRQMDRVEMERKGDFGPAMRALNADIVIDMICFTLESAEQLVTALSGYVGHFLHTGTIWTHGYPVAVPTREEAPKSPFGDYGIQKAAIETYLLQQARLRGFPATIIHPGHIVGRGWAPLNPAGNFNLQVFSTLARGEALALPNFGLETVHHVHADDVAAMFMDAIANRNASLGESFHAVSEQALTLRGYAESMSRWFGRDPKLTFAPFDAWARGQAAEDAEATWEHIARSPNCSIAKARRLLGYGPRYTSLQAVQESVGWLLGQGRIKS”: the protein production result is listed as “failed”. For “MRVNGLTKGFFILIVFIVTLAFFDVLSPYYSAILWAAILAVIFNPVKNKIRTRLGERNGLAALMTIVIICLIVFTPLAIILSSLAYELNLVYSKLQHNDTQFPTVVASLFAHLPGWARSFLADHNLDSAQQIQQQLSDAALKGGQYLAGSAFLIGKGTFGFTVSFGIMLYLLFFLLKDGPYLVLLILESLPLSSYVKQHLFAKFAAVARATVKGTVAVALAQGALGGFAFWIAGLDGSILWGALMAFLSLIPAVGSAIIWVPAAIYLFATGQLWQGAFIVGFFVIVIGLVDNILRPLLVGKDTRMPDYLILIATLGGMEIYGINGFVIGPLIAALFIACWNLLSGREHAGNTDEIDEEFIEEAKNSRNE”, the protein production entry is recorded as “failed”.

As to “MRVQANSRSMGVLEDKARARTFYKYLSKVYDRVNTFIWTEEMRAEALSMLDIDAEDRVLDVGCGTGFGTEGLLKHTEHVYGLDQSPHQLTKAWEKFGKHDPVAFHFGDAERLPFKPDSFDVVWSSGSIEYWPHPVQGLRELRRVAKPGSQVLVVGPDYPASTVFRKLADAIMLFYDEDEADRMFREAGYEEIQHRVLRKEPNSPPAIVTVARAPAADD”, the protein production result is recorded as “failed”. Turning to “MRVRTERLTLAGLSVLARIPEAPKALLLALHGLQGSKEHILALLPGYAERGFLLLAFDAPRHGEREGPPPSSKSPRYVEEVYRVALGFKEEARRVAEEAERRFGLPLFLAGGSLGAFVAHLLLAEGFRPRGVLAFIGSGFPMKLPQGQVVEDPGVLALYQAPPATRGEAYGGVPLLHLHGSRDLIVPLARMEKTLEALRPHYPEGRLARFVEEGAGHTLTPLMARVGLAFLEHWLEAR”, the protein production entry is reported as “not failed”.

With “MRVSVVIPARNEEAYLPSALEAVLAQTLPPFEVIVVDNASTDRTREVAEAFGARVVFCGRKGVAYARQAGLLAARGEWVAMTDADSLPTPRWLERLAHKAPGAVAVYGPLRFYGVSPLEAAFSEWGYRAFLNLMALLGRPNLAGANMMVLKEAALKVGGFPEVEAREDVLLGWRLKALGPVRYARDALVLTSARRLQGGWGRFLLRQARNLLGDPRGYFGEAGERER”, the protein production result is “failed”. For the sequence “MRVTGVIIRIIRQFFRDKRSLAMMFGAPMLLLWLLSLVFTQKDYVPHIAVVDMPVQVVKVMKNQEASIYEYSKEKAMSELENQKVDAVIRLENGKMNIVLEGSDSSKNRAVLQILQKSTEKNDVSIMKPEVNYLHGSKDFTMFDGLGPVLIGFFTFFFVFILSGVSFVRERLSGTLERLLSTPIKRWEIVVGYIIGFGIFAFIQSIIIVSFSVYILDLYVAGSIWLTLLITCMLSLTALTLGTFLSAYANNEFQMIQFIPLVIVPQIFFSGLFPIESMNKWLQMLGKLFPLTYGADAMRQVMIRNQGFTEIALDLTVLLFFSVLFAVGNVFALKKHRKI”, the protein production result is reported as “failed”. With “MRVVHILLQVGILYGFYLVGSWIQKSFELIVPGSIIGMVLLLIALAIKAISPKWIEQGSMQLLLLMPMLFLPVTVGIMEYWHMFHGSGFWLLIIAFVSTILVFIISGWITQWLIAWKTKGIDKHDHL”, the protein production entry is reported as “failed”. “MRVVIVGAGKVGYSLAQYLTQEDHEVIVIEENEERRAIVQNTLDVMTISGNGASPRVLLDPEVRKAELMIAVTDMDEVNMIACMAAKQVGIKRTIARVRNQEYAEKDKIKFNEALGIDLTINPEMVTALEIKRILLTPSALDVEDFAGDRVRMIEVKMPSDSKLINTSLTQLTLPSHTLVAGILRNGRMLIPHGSDMLLPNDCVFFVGEVSAIKKIEDHFTVRKSKVERVLIIGAGRIGRHLAMILEKSDIAVKIIDKDMERCQELAESLDEGLVLCGEGTDIELLTEEGVGEADAVLCLTDDDKLNLLIALLAKHLGAPRTFVRVGRPDYISLMEKVGVDVVLSPRILTAGVILRYVRRSDVVSVSLLEGAKAEAMEIIIPPLSQVTHKKLKDAKLPKNSLIGSIVRDEEIIIPNGETVLKPGDRAIIFALPDTVPTVVRLFENKLESK”: the protein production result was “failed”.

“MRVYDMHVHLHEYSDREVEEILDADKSLVVVAVSDDLESAWRTLDLWHTFGGRVVPCLGFHPWNVREGRVWEAWEVLRLAYRYGVPCLGEVGLDRRFVDEYTWRVQNEVFDAFVQLAEDMGVMLNIHAPDAWKHVAHRIGWTSRARFMYHWYTGPATLPRALPEGRVWFSINSAIRVQEKSVRVAREIPLRSLVVESDGPYNYRGLRLSPLMVRETVKLVAEARGEDPGRLMEAISLNSERLLGLL”: the protein production entry was “failed”.
